Target: Rabbit skeletal muscle α-actin, filamentous (F-actin) (rabbit, UniProt P68135 1-377)
Conditions: both partners purified

B1: E16R Lifeact–mCherry (peptide)
chain: MGVADLIKKFESISKRE
notes: One of the plasmids 2479, 2556, 2557, 2558; also called E16R Lifeact variant; source: E. coli BL21-CodonPlus(DE3)-RIPL, purified (Protino Ni-IDA resin, dialysis)
  Kd: 6 ± 0.7 µM

B2: E17K Lifeact–mCherry (peptide)
chain: MGVADLIKKFESISKEK
notes: Lifeact (17 N-terminal residues of yeast ABP140) with E17K, fused to mCherry; One of the plasmids 2479, 2556, 2557, 2558; also called E17K variant of Lifeact; source: E. coli BL21-CodonPlus(DE3)-RIPL, purified (Protino Ni-IDA resin, dialysis)
  Kd: 8.1 ± 0.6 µM
